Results: patent publication US20260274913A1 (Amgen, published 2026)
Each block holds one binder with its values, some of them ahead of it.

Assays:
cyno TREM-1-His protein = target: T1, cyno TREM-1-His protein (cynomolgus monkey, UniProt A0A2K5VHG8 21-204); test: BLI (Octet HTX), antibody captured on anti-human Fc sensor, cyno TREM-1-His as analyte, 1:1 model
T1 construct: extracellular domain; Soluble analyte of the Octet assay; not shown: His tag
T1 sequence: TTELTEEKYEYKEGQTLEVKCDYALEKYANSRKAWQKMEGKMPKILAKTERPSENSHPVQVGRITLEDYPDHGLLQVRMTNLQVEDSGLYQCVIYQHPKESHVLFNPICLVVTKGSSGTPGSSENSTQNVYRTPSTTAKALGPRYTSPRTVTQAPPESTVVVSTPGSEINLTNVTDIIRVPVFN
Procedure: Briefly, TREM-1 hybridoma supernatants normalized to 10 μg/mL in DMEM null media were prepared by diluting 1:10 in OCTET® assay buffer (10 mM Tris, 0.1% Triton X-100, 150 mM NaCl, 1 mM CaCl₂), 0.1 mg/mL BSA, at pH 7.6) to a final test concentration of 1 μg/mL. Amine reactive second-generation AR2G Biosensors (Molecular Devices) were pre-incubated in 200 μL nanopore water for a minimum of 10 minutes at room temperature before use. The AR2G Biosensors were then activated for 5 minutes in a solution of 20 mM EDC (1-Ethyl-3-[3-dimethylaminopropyl]carbodiimide hydrochloride) (ForteBio) pre-mixed with 10 mM NHS (N-hydroxysulfosuccinimide) (ForteBio) in nanopore water. An in-house generated mouse anti-human Fc monoclonal antibody was coupled to the AR2G Biosensors at 10 μg/mL in 10 mM sodium acetate buffer at pH 5 for 5 minutes, quenched with 1M ethanolamine at pH 8.5 for 5 minutes, and then used to capture antibody from solution. The TREM-1 test antibodies were loaded onto the Biosensors for 5 minutes, and baseline measurements were taken for 1 minute. […] The association of recombinant human TREM-1 with the antibody-loaded sensor was measured for 5 minutes, followed by dissociation in OCTET® buffer for 10 minutes. Biosensors were then regenerated with 10 mM glycine at pH 1.7, reloaded with the same TREM-1 antibodies on the same sensors for 5 minutes, and the same method was used to measure association and dissociation of cyno TREM-1-His protein. Data was referenced using a 0 nM analyte reference sensor. Kinetic analysis was performed using a 1:1 Langmuir model with mass transfer in Genedata Screener software.

cyno TREM-1 = target: T2, cyno TREM-1 (cynomolgus monkey, UniProt A0A2K5VHG8 21-233); test: cell-based or functional assay
T2 sequence: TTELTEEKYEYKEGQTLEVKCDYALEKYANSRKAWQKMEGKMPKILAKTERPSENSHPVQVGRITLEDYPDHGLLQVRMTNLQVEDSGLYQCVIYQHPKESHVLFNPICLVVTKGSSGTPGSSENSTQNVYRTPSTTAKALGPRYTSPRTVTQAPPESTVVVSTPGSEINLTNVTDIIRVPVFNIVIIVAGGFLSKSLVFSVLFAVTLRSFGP

B1: 3E12 (antibody, V domains shown)
VH: QVQLVQSGAEVKKPGASVKVSCKASGYTFNGYYIHWVRQAPGQGLEWMGWLNPNSGGANYAQKFQGWVTMTRDTSISTAYMELSRLTSDDTAVYYCARDQRKTTVTPFEYWGQGTLVTVSS
VL: SYELTQPPSVSVSPGQTASITCSGDKLGERNVCWYQLKPGQSPILVIYQDNKRPSGIPERFSGSKSGNTAILTISGTQAMDEADYYCQAWDRNVVFGGGTKLTVL
Kd (cyno TREM-1-His protein): 1800 pM

B3: 57C10 (antibody, V domains shown)
VH: QVQLVQSGAEVKKPGASVKVSCKASGYTFTRYDINWVRQATGQGLEWMGWLNPNSGNTGQTQKFRGRVTMTRNTSINTAYMELSSLRSEDTAVYYCARGGYTSAWRWYFDLWGRGTLVTVSS
VL: DIQMTQSPSSLSASVGDRVTITCQASQDINNHLNWYQQKPGKAPKLLIYDVSNLETGVPSSFSGSGCGTDFTFTISSLQPEDIATYFCQQYDKLPLTFGGGTKVEIE
Ab IC50-Cyno PBMC (Trial 1), TNFα release induced by cyno PGLYRP1/PGN (cyno TREM-1): 154 pM
Ab IC50-Cyno PBMC (Trial 2), TNFα release induced by cyno PGLYRP1/PGN (cyno TREM-1): 28.4 pM
Kd (cyno TREM-1-His protein): 1280 pM

B6: 34D1 (antibody, V domains shown)
VH: QVQLVQSGAEVKKPGASVKVSCKASGYTFTRYDINWVRQATGQGLEWMGWMNPNSGNSGSVQKFRGRVTMTRNTSIHIAYMELSSLRSEDTAVYYCARGGYTSSWRWYFDLWGRGTLVTVSS
VL: DIQMTQSPSSLSASVGDRVNITCQASQDIRKHLNWYQQKPGKAPNLLIYDAANLETGVPSRFSGSGSGTAFTFTISSLQPEDIATYYCQHYANLPITFGQGTRLEIK
Kd (cyno TREM-1-His protein): 4970 pM

B7: 66B8 (antibody, V domains shown)
VH: QVQLVQSGAEVKKPGASVKVSCKASGYTFTGYYMHWVRQAPGQGLEWMGWFKPNSGVTNYAQKFQGRVTMSRDTSISTAYMELSSLRSDDTAVYYCARAGYSTSWKDWFDPWGQGTLVTVSS
VL: DIQMTQFPSSVSASVGDRVTITCRASQGISRWLAWYQQKQGKAPKLLIYMVSSLQSGVPSRFSGSGSGTDFTLTISSLQPEDFATYYCQQSHNFPITFGQGTRLDIK
Ab IC50-Cyno PBMC (Trial 1), TNFα release induced by cyno PGLYRP1/PGN (cyno TREM-1): 114 pM
Ab IC50-Cyno PBMC (Trial 2), TNFα release induced by cyno PGLYRP1/PGN (cyno TREM-1): 23.2 pM
Kd (cyno TREM-1-His protein): 1640 pM

B11: 61G5 (antibody, V domains shown)
VH: QVQLVQSGAEVKKPGASVKVSCKASGYTFTSYDINWVRQATGQGLEWMGWMNPNSGNSGSVKKFRDRVTMTRNTSISTAYMELSSLRSEDTAVYYCVRLIGYSSAWKWSFQHWGQGTLVTVSS
VL: DIQMTQSPSSLSASVGDRVTITCQASRDISKYLNWYQQKPGKAPKLQIYDASNLETGVPSRFSGSGSGTDFTFTISSLQPEDIATYYCQHYDNIPITFGQGTRLEIK
Ab IC50-Cyno PBMC (Trial 2), TNFα release induced by cyno PGLYRP1/PGN (cyno TREM-1): 2340 pM
Kd (cyno TREM-1-His protein): 1310 pM

B12: 30H2 (antibody, V domains shown)
VH: EVQVLESGGGLVQPGESLRLSCTASGFTFNAYAMSWVRQAPGKGLEWVSTISGSGSTTYYADSVKGRFTISRDNSKNTLDLQMNSLRAADTAVYYCAKVAGSNFFFDHWGQGTLVTVSS
VL: EIVMTQSPATLSVSPGERATLSCRASQSINSNLAWYQQKPGQAPRLLIYGAYTRATGIPDRFSGSGSGTEFTLTISSLQSEDFAVYYCQEFIMWPPWTFGLGTQVEIK
notes: also called 19330
Ab IC50-Cyno PBMC (Trial 1), TNFα release induced by cyno PGLYRP1/PGN (cyno TREM-1): 3770 pM
Kd (cyno TREM-1-His protein): 5700 pM

B13: 46H7 (antibody, V domains shown)
VH: EVQLLESGGGMVQPGGSLRLSCAVSGFTFSRYAMSWVRQAPGKGLEWVSEMRGSSGSTYYADSVKGRFTISRDNSKNTLYLQMNSLRVEDTAIYYCAKEFSSNSLFDYWGQGTLVTVSS
VL: EIVMTQSPATLSVSPGERATLSCRASQSVNSNLAWYQQKPGRAPRLLIYGASTRATGIPARFSGSGSGTEFTLTISSLQSEDFAVYYCQQFYNWPPWTFGQGTKVEIK
Ab IC50-Cyno PBMC (Trial 1), TNFα release induced by cyno PGLYRP1/PGN (cyno TREM-1): 95.1 pM
Ab IC50-Cyno PBMC (Trial 2), TNFα release induced by cyno PGLYRP1/PGN (cyno TREM-1): 9.7 pM

The remaining lines, values ahead:

Kd (cyno TREM-1-His protein): < 290 pM
B2: 57F5 (antibody, V domains shown)
VH: EVQLLESGGGLVQPGGSLRLSCAASGFTFSSYAMTWVRQAPGRGLQWVSTISGSGSNTYYADSVKGRFTISRDNSKNTLYLQMSSLRAEDTAVYYCAKEGGSNRYFHHWGQGTLVTISS
VL: DIQMTQSPSSLSASVGDRVTITCRASQSISSNLNWYQQKPGKAPKLLISAASNLQSGVPSRFSGSESGTDFTLTISSLQSEDFATYYCQQSDSLPLTFGGGTKVEIN

Ab IC50-Cyno PBMC (Trial 1), TNFα release induced by cyno PGLYRP1/PGN (cyno TREM-1): 22.6 pM
Ab IC50-Cyno PBMC (Trial 2), TNFα release induced by cyno PGLYRP1/PGN (cyno TREM-1): 16.1 pM
Kd (cyno TREM-1-His protein): 856 pM
B4: 63F8 (antibody, V domains shown)
VH: QVQLVQSGAEVKKPGASVKVSCKASGYTFTSYDINWVRQATGQGLEWMGRMNPKSGNAGYVQNFRGRVTMTRNTSISTAYMELSSLRSEDTAVYYCARGGRTSIWSFVFDYWGQGTLVTVSS
VL: DIQMTQSPSSLSASVGDRVTITCQASQDISKHLNWYQQKPGKAPKLLIYDTSNLETGVPSRFSGSGSGTDFTFTISSLQPEDIATYNCQQYDKLPLTFGGGTKVEIK

Ab IC50-Cyno PBMC (Trial 1), TNFα release induced by cyno PGLYRP1/PGN (cyno TREM-1): 46.9 pM
Ab IC50-Cyno PBMC (Trial 2), TNFα release induced by cyno PGLYRP1/PGN (cyno TREM-1): 17.4 pM
Kd (cyno TREM-1-His protein): 1270 pM
B5: 61B12 (antibody, V domains shown)
VH: QVQLVQSGAEVTKPGASVKVSCKASGYTFTRYDINWVRQATGQGLEWMGWMNPNSGNSGSVQKFRGRVTMTRNTSITTVYMELSSLRSDDTAVYYCARGGISSSWHWAFDIWGQGTMVTVSS
VL: DIQMTQSPSSLSASVGDRVTITCQASQDINNHLNWYQQKPGKAPKLLIYGAYTLETGVPSRFSGSGSGTDFTFTISSLQPEDIATYYCQQYDKLPLTFGGGTKVEIK

Ab IC50-Cyno PBMC (Trial 1), TNFα release induced by cyno PGLYRP1/PGN (cyno TREM-1): 6940 pM
Ab IC50-Cyno PBMC (Trial 2), TNFα release induced by cyno PGLYRP1/PGN (cyno TREM-1): 780 pM
Kd (cyno TREM-1-His protein): 680 pM
B8: 64D7 (antibody, V domains shown)
VH: QVQLVQSGAEVKKPGASVKVSCKASGYTFTSYDINWVRQATGQGLEWMGWMNPNRGNTGYVKKFQGRVTMTRNTSISTAYMELSSLRSEDTAVYYCARRRAVYRSSWEWYFDLWGRGTLVTVSS
VL: DTQMTQSPSSLSASEGDRVTITCQASQDIFNDLNWYQEKPGKAPKLLIYHASNLETGVPSRFSGSGSGTDYTFTISSLQPEDIATYYCQQYGNLPLTFGGGTKVEIK

Ab IC50-Cyno PBMC (Trial 1), TNFα release induced by cyno PGLYRP1/PGN (cyno TREM-1): 57.9 pM
Ab IC50-Cyno PBMC (Trial 2), TNFα release induced by cyno PGLYRP1/PGN (cyno TREM-1): 9.1 pM
Kd (cyno TREM-1-His protein): 2020 pM
B9: 44A5 (antibody, V domains shown)
VH: EVQLLESGGGLVQPGGSLRLSCAASGFTFSTYAMNWVRQAPGKGLEWVSTVSGSGRPTYYADSVKGRFTISRDNSKNTLYLQMNSLRAEDTAVYYCAKAYYSNYLFDYWGQGTLVTVSS
VL: EIVMTQSPAILSVSPGERATLSCRASQSVSSNLAWYQQKPGQAPRLLIYGASTRATGVPARFSGGGSGTDFTLTISSLQSEDFAVYYCQHCKTWPPLTFGGGTKVDLK

Ab IC50-Cyno PBMC (Trial 1), TNFα release induced by cyno PGLYRP1/PGN (cyno TREM-1): 732 pM
Ab IC50-Cyno PBMC (Trial 2), TNFα release induced by cyno PGLYRP1/PGN (cyno TREM-1): 266 pM
Kd (cyno TREM-1-His protein): 1870 pM
B10: 49A2 (antibody, V domains shown)
VH: EVQLVESGGGLVQPGGSLRLSCAASGFTFSSNWMSWVRQAPGKGLDWMASMKQDGSEIYYVDSVKGRFTISRDNAKNSLHLQMNSLRAEDTAVYYCVRGGWRFESWGQGALVTVSS
VL: EIVMTQSPATLSVSPGERATLSCRASQSVSSNLAWYQQKSGQAPRLLIYGASIRATGIPARVSGSGSGTEFTFTISSLQSEDFAVYYCQQYKNWPLTLGGGTKVEIK
notes: also called 19333

Ab IC50-Cyno PBMC (Trial 1), TNFα release induced by cyno PGLYRP1/PGN (cyno TREM-1): 2000 pM
Kd (cyno TREM-1-His protein): 6420 pM
B14: 50A12 (antibody, V domains shown)
VH: EVQLVESGGGLVQPGGSLRLSCAASGFTFSSYWMSWVRQAPGKGLEWVANIKQDGSEEYYVDSVKGRFTISRDNAKNSLFLQMNSLRAEDTAVYYCARDYGDSFDYWGQGTLVTVSS
VL: DIQMTQSPSSVSASVGDRVTITCRASQGIRKWLAWYQQKPGRAPKLLIYAASRLQSGVPSRFSGSGSGTDFTLTISSLRPEDFATYYCLQAHGFPWTFGQGTKVEIK
